Results as given in PMC5716193.

How the values were obtained:
[1] = molecular target: Thioredoxin-tagged Opbp[114–174] (Drosophila); experiment: cross-linking
[2] = molecular target: Opbp[1–174] fragment after deletion of TRX (Drosophila); experiment: cross-linking

Row | Substance | stoichiometry N [1] | stoichiometry N [2]
1 | Thioredoxin-tagged Opbp[114–174] (domain or fragment) | 2 | 
2 | Opbp[1–174] fragment after deletion of TRX (domain or fragment) |  | 2
